From US6512097
Residue numbers refer to the chain shown, from its start. “And” between values parts separate entries of the source, which are not always exact repeats. Equal entries are not always repeated. Where two headings read alike, the source gives them in different places.

Assays:
Assay in all cases: SPR BIAcore
[1] = molecular target: T1, c-erbB-2 ECD with a Ser-Gly-His6 C-terminal fusion (UniProt P04626 23-652)
T1 construct: extracellular domain; Expressed from CHO cells, IMAC purified; coupled to a CM5 chip, coated on plates, or biotinylated with NHS-LC-biotin; also called c-erbB-2 extracellular domain; biotinylated c-erbB-2 ECD

[2] = molecular target: T1, c-erbB-2 ECD with a Ser-Gly-His6 …; remark: listed apart in the source
[3] = molecular target: T1, c-erbB-2 ECD with a Ser-Gly-His6 …; remark: listed apart in the source
Procedure: All assays were performed in triplicate. Briefly, […] of radioiodinated sFv was added to 5×10^6 SK-OV cells in the presence of increasing concentrations of unlabeled sFv from the same preparation. After a 30 minute incubation at 20° C., the samples were washed with PBS at 4° C. and centrifuged at 500 g. The amount of labeled sFv bound to the cells was determined by counting the pellets in a gamma counter and the K_a, and K_d were calculated using the EBDA program (V 2.0, G. A. McPherson, 1983). The K_d of all the other isolated sFv were determined using surface plasmon resonance in a BIAcore (Pharmacia). In a BIAcore flow cell, approximately 1400 resonance units (RU) of c-erbB-2 ECD (25 μg/ml in 10 mM sodium acetate, pH 4.5) was coupled to a CM5 sensor chip (Johnsson et al. (1991), supra). Association and dissociation-rates were measured under continuous flow of […] using a concentration range from 50 to 800 nM. Rate constant $kon$ was determined from a plot of (1(dR/dt))/t vs concentration (Karlsson et al. (1991), supra). Rate constant $Hoff$ was determined from the dissociation part of the sensorgram at the highest concentration of sFv analyzed.
Dashes indicate sequence identity. Mutations arising from PCR error and located outside V_H CDR3 are listed under the heading other mutations. F = frequency of isolated scFv. *$koff$ determined from unpurified scFv samples. Underline indicates mutated residue.

[4] = molecular target: T1, c-erbB-2 ECD with a Ser-Gly-His6 …; remark: listed apart in the source

B1: C6.5P100iA (scFv)
scFv: QVQLLQSGAELKKPGESLKISCKGSGYSFTSYWIAWVRQMPGKGLEYMGLIYPGDSDTKYSPSFQGQVTISVDKSVSTAYLQWSSLKPSDSAVYFCARHDVGYCSSSNCAKWAEYFQHWGQGTLVTVSSGGGGSGGGGSGGGGSQSVLTQPPSVSAAPGQKVTISCSGSSSNIGNNYVSWYQQLPGTAPKLLIYGHTNRPAGVPDRFSGSKSGTSASLAISGFRSEDEADYYCAAWDDSLSGWVFGGGTKLTVLG
notes: C6.5 VH CDR3 scan mutant; Kabat numbering
Kd [1]: 10 nM
Kd (mutant)/Kd (C6.5) [1]: 0.6
koff [1]: 0.011 s⁻¹
kon [1]: 1.05e+06 M⁻¹ s⁻¹

B2: C6ML3-24 (scFv)
scFv: B1 scFv with A113P, D238E, S239Q, L240I, S241F
Kd [2]: 12.4 nM
koff [2]: 0.0079 s⁻¹

B3: C6ML3-20 (scFv)
scFv: B1 scFv with A113P, D237E, D238Q, S241W
Kd [2]: 3 nM
koff [2]: 0.0014 s⁻¹

B4: C6MH3-B5 (scFv)
scFv: B1 scFv with S105T, S106D, S107A, N108T, A113P, A235S, D238Y, S239T
notes: C6ML3-9 sFv, VH CDR3 library B mutant
Kd [3]: 0.34 nM
koff [3]: 0.00023 s⁻¹

B5: C6MH3-D3 (scFv)
scFv: B1 scFv with A113P, Y115W, F116L, Q117D, H118N, A235S, D238Y, S239T
notes: C6ML3-9 sFv, VH CDR3 library D mutant
Kd [3]: 0.27 nM
koff [3]: 0.00025 s⁻¹

B6: C6.5Q101A (scFv)
scFv: B1 scFv with A113P, Q117A
notes: as for B1
Kd [1]: 8.2 nM
Kd (mutant)/Kd (C6.5) [1]: 0.5
koff [1]: 0.0098 s⁻¹
kon [1]: 1.2e+06 M⁻¹ s⁻¹

B7: C6MH3-D1 (scFv)
scFv: B1 scFv with A113P, Y115W, F116L, Q117H, H118V, A235S, D238Y, S239T
notes: as for B5
Kd [3]: 0.31 nM
koff [3]: 0.00011 s⁻¹

B8: C6.5V97A (scFv)
scFv: B1 scFv with V101A, A113P
notes: as for B1
Kd [1]: 48 nM
Kd (mutant)/Kd (C6.5) [1]: 3
koff [1]: 0.015 s⁻¹
kon [1]: 310000 M⁻¹ s⁻¹

B9: C6ML3-16 (scFv)
scFv: B1 scFv with A113P, A235S, D238Y, S239Y, L240R
Kd [2]: 5 nM
koff [2]: 0.0017 s⁻¹

B10: C6.5S100cA (scFv)
scFv: B1 scFv with S107A, A113P
notes: as for B1
Kd [1]: 24 nM
Kd (mutant)/Kd (C6.5) [1]: 1.5
koff [1]: 0.011 s⁻¹
kon [1]: 450000 M⁻¹ s⁻¹

B11: C6ML3-8 (scFv)
scFv: B1 scFv with A113P, D238H, S239L, L240R, S241W
Kd [4]: 2.6 nM
koff [4]: 0.0017 s⁻¹

B12: C6ML3-18 (scFv)
scFv: B1 scFv with A113P, A235S, D238A, S241W
Kd [2]: 2.4 nM
koff [2]: 0.00062 s⁻¹

B13: C6MH3-B48 (scFv)
scFv: B1 scFv with S105T, S106D, S107P, N108S, A113P, A235S, D238Y, S239T
notes: as for B4
Kd [3]: 0.23 nM
koff [3]: 0.00013 s⁻¹

B14: C6.5S100bA (scFv)
scFv: B1 scFv with S106A, A113P
notes: as for B1
Kd [1]: 47 nM
Kd (mutant)/Kd (C6.5) [1]: 2.9
koff [1]: 0.016 s⁻¹
kon [1]: 340000 M⁻¹ s⁻¹

B15: C6ML3-17 (scFv)
scFv: B1 scFv with A113P, A235S, D238Y, S239Y, L240R
Kd [2]: 5 nM
koff [2]: 0.0017 s⁻¹

B16: C6MH3-B11 (scFv)
scFv: B1 scFv with S106D, S107R, N108S, A113P, A235S, D238Y, S239T
notes: as for B4
Kd [3]: 0.22 nM
koff [3]: 0.00023 s⁻¹

B17: C6MH3-B15 (scFv)
scFv: B1 scFv with S105E, N108R, A113P, A235S, D238Y, S239T
notes: as for B4
Kd [3]: 0.77 nM
koff [3]: 0.00029 s⁻¹

B18: C6ML3-26 (scFv)
scFv: B1 scFv with A113P, L240R
Kd [2]: 8.3 nM
koff [2]: 0.005 s⁻¹

B19: C6MH3-B25 (scFv)
scFv: B1 scFv with S105L, S106T, S107T, N108R, A113P, A235S, D238Y, S239T
notes: as for B4
Kd [3]: 0.36 nM
koff [3]: 0.00019 s⁻¹

B20: C6ML3-22 (scFv)
scFv: B1 scFv with A113P, D238A
Kd [2]: 8.3 nM
koff [2]: 0.0036 s⁻¹

B21: C6MH3-B39 (scFv)
scFv: B1 scFv with S105T, S106D, S107P, N108T, A113P, A235S, D238Y, S239T
notes: as for B4
Kd [3]: 0.32 nM
koff [3]: 0.00019 s⁻¹

B22: C6ML3-28 (scFv)
scFv: B1 scFv with A113P, A235S, D238Y, S239A
Kd [2]: 2.5 nM
koff [2]: 0.0017 s⁻¹

B23: C6MH3-B16 (scFv)
scFv: B1 scFv with S105A, S106D, S107V, N108R, A113P, A235S, D238Y, S239T
notes: as for B4
Kd [3]: 0.31 nM
koff [3]: 0.00028 s⁻¹

B24: C6ML3-A3 (scFv)
scFv: B1 scFv with N108D, A113P, A235S, D238Y, S239T
Kd [3]: 16 nM
koff [3]: 0.0063 s⁻¹

B25: C6MH3-D5 (scFv)
scFv: B1 scFv with A113P, Y115W, F116M, H118M, A235S, D238Y, S239T
notes: as for B5
Kd [3]: 0.38 nM
koff [3]: 0.00021 s⁻¹

B26: C6MH3-B9 (scFv)
scFv: B1 scFv with S105K, S106T, S107A, N108A, A113P, A235S, D238Y, S239T
notes: as for B4
Kd [3]: 0.87 nM
koff [3]: 0.00033 s⁻¹

B27: C6ML3-2 (scFv)
scFv: B1 scFv with A113P, D238H
Kd [4]: 2.8 nM
koff [4]: 0.002 s⁻¹

B28: C6ML3-21 (scFv)
scFv: B1 scFv with A113P, D238Y, L240Q
Kd [2]: 4.5 nM
koff [2]: 0.0022 s⁻¹

B29: C6MH3-B21 (scFv)
scFv: B1 scFv with S105T, S106T, S107P, N108L, A113P, A235S, D238Y, S239T
notes: as for B4
Kd [3]: 0.73 nM
koff [3]: 0.00024 s⁻¹

B30: C6ML3-3 (scFv)
scFv: B1 scFv with A113P, A235T, D238Y, S239A
Kd [4]: 4.3 nM
koff [4]: 0.002 s⁻¹

B31: C6HL3-10 (scFv)
scFv: B1 scFv with A113P, D237E, S239P, L240W, S241Y
notes: label as printed (probably C6ML3-10)
Kd [4]: 2.3 nM
koff [4]: 0.0014 s⁻¹

B32: C6.5Y99A (scFv)
scFv: B1 scFv with Y103A, A113P
notes: as for B1
Kd [1]: 59 nM
Kd (mutant)/Kd (C6.5) [1]: 3.7
koff [1]: 0.053 s⁻¹
kon [1]: 900000 M⁻¹ s⁻¹

B33: C6ML3-25 (scFv)
scFv: B1 scFv with A113P, D238N, S239R, L240H
Kd [2]: 7.4 nM
koff [2]: 0.0044 s⁻¹

B34: C6ML3-11 (scFv)
scFv: B1 scFv with A113P, D238Y, S239A, S241W
Kd [4]: 3.6 nM
koff [4]: 0.0022 s⁻¹

B35: C6MH3-B20 (scFv)
scFv: B1 scFv with S106P, S107A, N108R, A113P, A235S, D238Y, S239T
notes: as for B4
Kd [3]: 0.87 nM
koff [3]: 0.00016 s⁻¹

B36: C6MH3-B41 (scFv)
scFv: B1 scFv with S105T, S106D, S107R, N108P, A113P, A235S, D238Y, S239T
notes: as for B4
Kd [3]: 0.53 nM
koff [3]: 0.00027 s⁻¹

B37: C6ML3-4 (scFv)
scFv: B1 scFv with A113P, A235S, D237E, D238Y, S241W
Kd [4]: 3.5 nM
koff [4]: 0.0014 s⁻¹

B38: C6ML3-1 (scFv)
scFv: B1 scFv with A113P, D238Y, S241W
Kd [4]: 6.7 nM
koff [4]: 0.002 s⁻¹

B39: C6.5S100aA (scFv)
scFv: B1 scFv with S105A, A113P
notes: as for B1
Kd [1]: 28 nM
Kd (mutant)/Kd (C6.5) [1]: 1.8
koff [1]: 0.013 s⁻¹
kon [1]: 470000 M⁻¹ s⁻¹

B40: C6MH3-B2 (scFv)
scFv: B1 scFv with S105T, S106D, S107P, N108R, A113P, A235S, D238Y, S239T
notes: as for B4
Kd [3]: 0.31 nM and 0.58 nM
koff [3]: 0.00031 s⁻¹ and 0.00032 s⁻¹

B41: C6MH3-C3 (scFv)
scFv: B1 scFv with G15E, A113P, N198D, A235S, D238Y, S239T
Kd [3]: 0.65 nM
koff [3]: 0.00032 s⁻¹

B42: C6MH3-B27 (scFv)
scFv: B1 scFv with S105K, S106N, N108R, A113P, A235S, D238Y, S239T
notes: as for B4
Kd [3]: 0.47 nM
koff [3]: 0.0004 s⁻¹

B43: C6MH3-D6 (scFv)
scFv: B1 scFv with A113P, Y115W, F116M, Q117Y, H118P, A235S, D238Y, S239T
notes: as for B5
Kd [3]: 0.35 nM
koff [3]: 0.00018 s⁻¹
